Test results from paper PMC4351601, “Structural basis for self-assembly of a cytolytic pore lined by protein and lipid” (Nature Communications, 2015).
Substitutions are numbered along the chain they refer to. Numbers in names are those of the source.

B1: FraC mutein V60E/W149A (natural protein)
chain: SADVAGAVIDGAGLGFDVLKTVLEALGNVKRKIAVGIDNESGKTWTAMNTYFRSGTSDIELPHKVAHGKALLYNGQKNRGPVATGVVGVIAYSMSDGNTLAVLFSVPYDYNWYSNWWNVRVYKGQKRADQRMYEELYYHRSPFRGDNGAHSRGLGYGLKSRGFMNSSGHAILEIHVTKA
B2: FraC mutein V8C/K69C, oxidised (engineered disulfide bond between the N-terminal and beta-core regions) (natural protein)
chain: B1 chain with V8C, E60V, K69C, A149W
B3: fragaceatoxin C (FraC), wild type (natural protein)
chain: B1 chain with E60V, A149W
notes: no tag is mentioned; also called water-soluble FraC; monomeric FraC; source: E. coli BL21 (DE3), purified (Resource S cation exchange, Superdex 75 SEC)

Key:
[1] = target: the molecule itself; assay: cell-based or functional assay
[2] = target: the molecule itself; assay: crystal structure; transmembrane pore; water-soluble FraC incubated with lipid vesicles, solubilised and purified in detergent (DDM 0.015%), crystallised by the lipid sponge phase method, 20 °C; 3.1 Å; 24 bound lipids modelled as SM
[3] = target: the molecule itself; assay: crystal structure; dimeric form (assembly intermediate); crystals with 100 mM POC, 3 mM DDM, 200 mM Li2SO4, PEG 8,000, sodium acetate pH 4.1-4.3; two crystal forms, 1.57 and 1.60 Å

Protein | haemolytic activity (horse erythrocytes), relative to wild-type FraC [1] | stoichiometry N [2] | stoichiometry N [3]
B1 | ~16 % of wild type | – | –
B2 | 1 % of wild type | – | –
B3 | – | 8 | 2
